Assay results taken from PMC5852647, “Structural basis of siRNA recognition by TRBP double‐stranded RNA binding domains”.
Residue numbers refer to the chain shown, from its start.

Experiments:
[1] = biological target: T1, TRBP dsRBD12 Cy3B-CF660R (doubly labeled) (human, UniProt Q15633 16-158+=T+159-227, C73A;M100C;C196V;internal_change); assay: single-molecule FRET titration; 125 mM KCl, 20 mM Tris-HCl pH 7.4, 295 K; smFRET: 20 mM Tris-HCl pH 7.4, 125 mM KCl (affinity) or 25 mM KCl (orientation), 15 nM BSA, 0.001% Tween-20, 295 K; NMR buffer not in material; settings: protein: recombinant; tags: Cy3B and CF660R at C100 and C158; pET47b(+)-based vector; 19 bp, 3' overhang 2 nt (UU) on both strands
T1 sequence: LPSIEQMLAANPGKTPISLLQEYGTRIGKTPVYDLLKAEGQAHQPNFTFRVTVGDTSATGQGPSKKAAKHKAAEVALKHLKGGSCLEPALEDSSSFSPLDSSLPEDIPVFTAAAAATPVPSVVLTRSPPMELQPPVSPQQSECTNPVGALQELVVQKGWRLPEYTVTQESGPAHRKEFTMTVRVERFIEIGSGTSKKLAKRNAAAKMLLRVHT

TRBP dsRBD12 M100C/C158S = biological target: T2, TRBP dsRBD12 M100C/C158S (human, UniProt Q15633 16-158+=T+159-227, C73A;M100C;C158S;C196V;internal_change); assay: single-molecule FRET; 25 mM KCl; two configurations; smFRET: 20 mM Tris-HCl pH 7.4, 125 mM KCl (affinity) or 25 mM KCl (orientation), 15 nM BSA, 0.001% Tween-20, 295 K; NMR buffer not in material; settings: protein: recombinant; tags: CF660R at C100; label: Cy3B at 3' end of EL86down; 19 bp, 3' overhang 2 nt (UU) on both strands
T2 sequence: T1 sequence with C143S

TRBP dsRBD12 M100S = biological target: T3, TRBP dsRBD12 M100S (human, UniProt Q15633 16-158+=T+159-227, C73A;M100S;C196V;internal_change); assay: as above; settings: protein: recombinant; tags: CF660R at C158; label: Cy3B at 3' end of EL86down; 19 bp, 3' overhang 2 nt (UU) on both strands
T3 sequence: T1 sequence with C85S

B1: EL86 siRNA (dsRNA)
RNA 1: UUAAUUAUCUAUUCCGUACUU
RNA 2: GUACGGAAUAGAUAAUUAAUU
Kd [1]: 0.21 ± 0.03 nM

B2: EL86 siRNA, Cy3B-labeled (dsRNA)
RNA 1: UUAAUUAUCUAUUCCGUACUU
RNA 2: GUACGGAAUAGAUAAUUAAUU
modifications: 3' biotin on EL86up; 3' amino modifier on EL86down
binding result (TRBP dsRBD12 M100C/C158S): binds
binding result (TRBP dsRBD12 M100S): binds
